This passage reports reduction of heterotypic cell adhesion between #12 and A431-Meso+ cells by ascites of EOC patients (#15 and #24), flow cytometry, heterotypic doublets between MUC16 positive #12 cells and A431-Meso+ cells in PBS with 1% BSA, percent of total live cells, flow cytometry and percent inhibition of meso-Fc binding to OVCAR-3 cells (MUC16 results from paper PMC1635730.

The target in experiment [1] is recombinant mesothelin expressed on human epidermoid epithelial A431 cells (human) (UniProt Q13421).
recombinant mesothelin expressed on human epidermoid epithelial A431 cells (human), sequence (Q13421 other isoform, or with tags, fused parts or gaps): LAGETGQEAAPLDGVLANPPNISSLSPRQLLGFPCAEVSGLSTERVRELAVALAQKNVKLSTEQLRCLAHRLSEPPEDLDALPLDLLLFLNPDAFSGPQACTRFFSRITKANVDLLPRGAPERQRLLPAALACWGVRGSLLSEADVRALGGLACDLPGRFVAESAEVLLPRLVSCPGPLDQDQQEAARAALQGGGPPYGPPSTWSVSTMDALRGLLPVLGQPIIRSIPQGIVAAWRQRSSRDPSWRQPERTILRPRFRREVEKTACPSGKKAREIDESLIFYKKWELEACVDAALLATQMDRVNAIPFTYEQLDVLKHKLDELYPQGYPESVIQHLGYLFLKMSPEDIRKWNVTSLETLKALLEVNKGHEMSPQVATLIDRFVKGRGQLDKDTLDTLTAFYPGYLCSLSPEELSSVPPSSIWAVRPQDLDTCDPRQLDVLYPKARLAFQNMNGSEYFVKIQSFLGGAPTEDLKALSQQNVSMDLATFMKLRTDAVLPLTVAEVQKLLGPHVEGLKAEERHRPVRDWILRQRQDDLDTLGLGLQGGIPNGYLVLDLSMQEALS
The target is the same in experiment [2]. This is another data set of the same source.
Experiment [3] addresses recombinant mesothelin tagged with the Fc fragment of rabbit IgG (human) (UniProt Q13421). The experiment in a line: flow cytometry on cells; inhibition: soluble MUC16 pre-incubated with meso-Fc (25 nM) for 1 h at 4°C; read out as meso-Fc left to bind OVCAR-3 cells. (In general: Flow cytometry measures light scatter and fluorescence of single cells or particles in a stream.)

recombinant mesothelin tagged with the Fc fragment of rabbit IgG (human), sequence (Q13421 other isoform, or with tags, fused parts or gaps): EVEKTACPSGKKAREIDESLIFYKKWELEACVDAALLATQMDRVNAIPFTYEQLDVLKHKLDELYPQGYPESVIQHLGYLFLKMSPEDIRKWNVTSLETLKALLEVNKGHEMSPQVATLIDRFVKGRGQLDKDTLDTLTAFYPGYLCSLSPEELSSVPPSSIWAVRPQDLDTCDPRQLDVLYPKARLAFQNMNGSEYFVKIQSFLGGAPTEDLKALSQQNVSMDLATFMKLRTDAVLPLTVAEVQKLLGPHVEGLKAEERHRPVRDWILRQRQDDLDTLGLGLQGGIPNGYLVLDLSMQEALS

With “MUC16 expressed on the surface of the ovarian tumor cell line OVCAR-3, Q8WXI7 1-14507”, the reduction of heterotypic cell adhesion between #12 and A431-Meso+ cells by ascites of EOC patients (#15 and #24), flow cytometry in experiment [1] was 33%. In addition, the heterotypic doublets between MUC16 positive #12 cells and A431-Meso+ cells in PBS with 1% BSA, percent of total live cells, flow cytometry in experiment [2] stood at 25%. For the substance “native MUC16 partially purified from OVCAR-3 cell culture media, Q8WXI7 1-14451”, the percent inhibition of meso-Fc binding to OVCAR-3 cells (MUC16 at half the molar amount of meso-Fc) in experiment [3] is 80%.
